B1: MTMR15 (parent)
chain: YVKAKKSIDKDEEFAGSSPQSSKS

Variants of: B1
Experiment: protein stability index of a GFP-peptide fusion (GPS, HEK-293T) (PSI 1-6); higher = more stable
Settings: c terminus: a fixed tail appended
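Note: lentivirally expressed fusions sorted by FACS into six bins by GFP to DsRed ratio, PSI derived from sequencing read proportions per bin multiplied by bin number.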

Point of comparison: YVKAKKSYDKDEEFAGSSPQSSKS, protein stability index 2.99. Against it:
- YVKAKKSIDKDREFAGSSPQSSKS — lower, 2.6
- YVKAKKSIDKDCEFAGSSPQSSKS — lower, 2.59
- YVKAKKSIDKDMEFAGSSPQSSKS — lower, 2.93
- YVKAKKSIDKDVEFAGSSPQSSKS — lower, 2.3
- YVKAKKSIDKDIEFAGSSPQSSKS — lower, 2.41
- YVKAKKSIDKDSEFAGSSPQSSKS — lower, 2.92
- YVKAKKSIDKDKEFAGSSPQSSKS — lower, 2.7
- YVKAKKSIDKDLEFAGSSPQSSKS — lower, 2.78
- YVKAKKSIDKDHEFAGSSPQSSKS — lower, 2.71
- YVKAKKSIDKDDEFAGSSPQSSKS — lower, 2.69
- YVKAKKSIDKDPEFAGSSPQSSKS — lower, 2.68
- YVKAKKSIDKDAEFAGSSPQSSKS — lower, 2.94
- YVKAKKSIDKDTEFAGSSPQSSKS — higher, 3.21
- YVKAKKSIDKDNEFAGSSPQSSKS — lower, 2.64
- YVKAKKSIDKDGEFAGSSPQSSKS — lower, 2.8
- YVKAKKSIDKDWEFAGSSPQSSKS — lower, 2.27
- YVKAKKSIDKDYEFAGSSPQSSKS — lower, 1.93
- YVKAKKSIDKDQEFAGSSPQSSKS — lower, 2.98
- YVKAKKSIDKDFEFAGSSPQSSKS — lower, 2.37
- YVKAKKSIDKDEEDAGSSPQSSKS — higher, 3.45
- YVKAKKSIDKDEEAAGSSPQSSKS — higher, 3.25
- YVKAKKSIDKDEECAGSSPQSSKS — higher, 3.43
- YVKAKKSIDKDEEEAGSSPQSSKS — higher, 3.94
- YVKAKKSIEKDEEFAGSSPQSSKS — lower, 2.9
- YVKAKKSIKKDEEFAGSSPQSSKS — lower, 2.45
- YVKAKKSIIKDEEFAGSSPQSSKS — lower, 2.73
- YVKAKKSITKDEEFAGSSPQSSKS — lower, 2.91
- YVKAKKSIRKDEEFAGSSPQSSKS — higher, 3.05
- YVKAKKSIMKDEEFAGSSPQSSKS — higher, 3.01
- YVKAKKSISKDEEFAGSSPQSSKS — lower, 2.69
- YVKAKKSINKDEEFAGSSPQSSKS — lower, 2.61
- YVKAKKSIGKDEEFAGSSPQSSKS — lower, 2.95
- YVKAKKSICKDEEFAGSSPQSSKS — lower, 2.98
- YVKAKKSILKDEEFAGSSPQSSKS — lower, 2.76
- YVKAKKSIQKDEEFAGSSPQSSKS — lower, 2.76
- YVKAKKSIHKDEEFAGSSPQSSKS — higher, 3.27
- YVKAKKSIFKDEEFAGSSPQSSKS — lower, 1.92
- YVKAKKSIVKDEEFAGSSPQSSKS — lower, 2.77
- YVKAKKSIYKDEEFAGSSPQSSKS — lower, 2.44
- YVKAKKSIAKDEEFAGSSPQSSKS — lower, 2.92
- YVKAKKSIWKDEEFAGSSPQSSKS — lower, 1.61
- YVKAKKSIPKDEEFAGSSPQSSKS — lower, 2.83
- YVKAKKSIDKFEEFAGSSPQSSKS — lower, 2.48
- YVKAKKSIDKGEEFAGSSPQSSKS — lower, 2.88
- YVKAKKSIDKVEEFAGSSPQSSKS — lower, 2.72
- YVKAKKSIDKNEEFAGSSPQSSKS — lower, 2.87
- YVKAKKSIDKYEEFAGSSPQSSKS — lower, 2.77
- YVKAKKSIDKCEEFAGSSPQSSKS — lower, 2.71
- YVKAKKSIDKHEEFAGSSPQSSKS — lower, 2.92
- YVKAKKSIDKMEEFAGSSPQSSKS — lower, 2.56
- YVKAKKSIDKAEEFAGSSPQSSKS — lower, 2.83
- YVKAKKSIDKIEEFAGSSPQSSKS — lower, 2.57
- YVKAKKSIDKEEEFAGSSPQSSKS — lower, 2.85
- YVKAKKSIDKLEEFAGSSPQSSKS — lower, 2.46
- YVKAKKSIDKTEEFAGSSPQSSKS — lower, 2.5
- YVKAKKSIDKWEEFAGSSPQSSKS — lower, 2.31
- YVKAKKSIDKKEEFAGSSPQSSKS — lower, 2.64
- YVKAKKSIDKSEEFAGSSPQSSKS — higher, 3.05
- YVKAKKSIDKPEEFAGSSPQSSKS — lower, 2.56
- YVKAKKSIDKREEFAGSSPQSSKS — lower, 2.45
- YVKAKKSIDKQEEFAGSSPQSSKS — lower, 2.94
- YVKYKKSIDKDEEFAGSSPQSSKS — higher, 3.55
- YVKWKKSIDKDEEFAGSSPQSSKS — lower, 1.8
- YVKQKKSIDKDEEFAGSSPQSSKS — higher, 3.41
- YVKIKKSIDKDEEFAGSSPQSSKS — higher, 3.24
- YVKLKKSIDKDEEFAGSSPQSSKS — higher, 3.04
- YVKNKKSIDKDEEFAGSSPQSSKS — the same, 2.99
- YVKKKKSIDKDEEFAGSSPQSSKS — higher, 4.12
- YVKMKKSIDKDEEFAGSSPQSSKS — higher, 3.31
- YVKRKKSIDKDEEFAGSSPQSSKS — higher, 3.32
- YVKSKKSIDKDEEFAGSSPQSSKS — lower, 2.45
- YVKPKKSIDKDEEFAGSSPQSSKS — higher, 3.19
- YVKTKKSIDKDEEFAGSSPQSSKS — lower, 2.39
- YVKVKKSIDKDEEFAGSSPQSSKS — higher, 3.08
- YVKAKKSCDKDEEFAGSSPQSSKS — lower, 2.83
- YVKAKKSTDKDEEFAGSSPQSSKS — higher, 3.22
- YVKAKKSSDKDEEFAGSSPQSSKS — higher, 3.55
- YVKAKKSLDKDEEFAGSSPQSSKS — higher, 3.07
- YVKAKKSADKDEEFAGSSPQSSKS — higher, 3.18
- YVKAKKSRDKDEEFAGSSPQSSKS — lower, 2.98
- YVKAKKSDDKDEEFAGSSPQSSKS — higher, 3.7
- YVKAKKSMDKDEEFAGSSPQSSKS — higher, 3.22
- YVKAKKSHDKDEEFAGSSPQSSKS — higher, 3.28
- YVKAKKSGDKDEEFAGSSPQSSKS — higher, 3.64
- YVKAKKSEDKDEEFAGSSPQSSKS — higher, 3.42
- YVKAKKSVDKDEEFAGSSPQSSKS — lower, 2.97
- YVKAKKSKDKDEEFAGSSPQSSKS — lower, 2.98
- YVKAKKSPDKDEEFAGSSPQSSKS — higher, 3.77
- YVKAKKSWDKDEEFAGSSPQSSKS — higher, 3.22
- YVKAKKSNDKDEEFAGSSPQSSKS — higher, 3.33
- YVKAKKSFDKDEEFAGSSPQSSKS — lower, 2.81
- YVKAKKSQDKDEEFAGSSPQSSKS — higher, 3.3
- YVKAKKMIDKDEEFAGSSPQSSKS — higher, 3.33
- YVKAKKKIDKDEEFAGSSPQSSKS — higher, 3.38
- YVKAKKPIDKDEEFAGSSPQSSKS — higher, 3.41
- YVKAKKYIDKDEEFAGSSPQSSKS — lower, 2.08
- YVKAKKDIDKDEEFAGSSPQSSKS — lower, 2.77
- YVKAKKIIDKDEEFAGSSPQSSKS — higher, 3.01
- YVKAKKCIDKDEEFAGSSPQSSKS — higher, 3.33
- YVKAKKQIDKDEEFAGSSPQSSKS — lower, 2.91
- YVKAKKWIDKDEEFAGSSPQSSKS — lower, 2.27
- YVKAKKNIDKDEEFAGSSPQSSKS — lower, 2.98
- YVKAKKHIDKDEEFAGSSPQSSKS — higher, 3.05
- YVKAKKEIDKDEEFAGSSPQSSKS — higher, 3.58
- YVKAKKFIDKDEEFAGSSPQSSKS — higher, 3.06
- YVKAKKAIDKDEEFAGSSPQSSKS — higher, 3.15
- YVKAKKRIDKDEEFAGSSPQSSKS — higher, 3.22
- YVKAKKTIDKDEEFAGSSPQSSKS — lower, 2.96
- YVKAKKGIDKDEEFAGSSPQSSKS — higher, 3.11
- YVKAKKLIDKDEEFAGSSPQSSKS — lower, 2.85
- YVKAKKVIDKDEEFAGSSPQSSKS — higher, 3.13
- YVKAKKSIDHDEEFAGSSPQSSKS — higher, 3.61
- YVKAKKSIDIDEEFAGSSPQSSKS — higher, 3.21
- YVKAKKSIDVDEEFAGSSPQSSKS — higher, 3.24
- YVKAKKSIDSDEEFAGSSPQSSKS — higher, 3.25
- YVKAKKSIDYDEEFAGSSPQSSKS — lower, 2.72
- YVKAKKSIDRDEEFAGSSPQSSKS — higher, 3.25
- YVKAKKSIDWDEEFAGSSPQSSKS — lower, 2.96
- YVKAKKSIDQDEEFAGSSPQSSKS — lower, 2.67
- YVKAKKSIDPDEEFAGSSPQSSKS — higher, 3.55
- YVKAKKSIDEDEEFAGSSPQSSKS — higher, 3.26
- YVKAKKSIDDDEEFAGSSPQSSKS — higher, 3.42
- YVKAKKSIDCDEEFAGSSPQSSKS — higher, 3.27
- YVKAKKSIDTDEEFAGSSPQSSKS — higher, 3.28
- YVKAKKSIDFDEEFAGSSPQSSKS — lower, 2.26
- YVKAKKSIDNDEEFAGSSPQSSKS — lower, 2.92
- YVKAKKSIDGDEEFAGSSPQSSKS — higher, 3.28
- YVKAKKSIDMDEEFAGSSPQSSKS — higher, 3.36
- YVKAKKSIDLDEEFAGSSPQSSKS — higher, 3.05
- YVKAKKSIDADEEFAGSSPQSSKS — higher, 3.63
- YVKAKGSIDKDEEFAGSSPQSSKS — higher, 3.15
- YVKAKCSIDKDEEFAGSSPQSSKS — lower, 2.54
- YVKAKTSIDKDEEFAGSSPQSSKS — higher, 3.5
- YVKAKSSIDKDEEFAGSSPQSSKS — lower, 2.84
- YVKAKMSIDKDEEFAGSSPQSSKS — higher, 3.16
- YVKAKESIDKDEEFAGSSPQSSKS — higher, 3.95
- YVKAKRSIDKDEEFAGSSPQSSKS — higher, 3.43
- YVKAKISIDKDEEFAGSSPQSSKS — lower, 2.67
- YVKAKNSIDKDEEFAGSSPQSSKS — higher, 3.25
- YVKAKHSIDKDEEFAGSSPQSSKS — higher, 3.26
- YVKAKFSIDKDEEFAGSSPQSSKS — higher, 3.02
- YVKAKPSIDKDEEFAGSSPQSSKS — higher, 3.05
- YVKAKLSIDKDEEFAGSSPQSSKS — lower, 2.55
- YVKAKASIDKDEEFAGSSPQSSKS — lower, 2.98
- YVKAKWSIDKDEEFAGSSPQSSKS — lower, 2.7
- YVKAKDSIDKDEEFAGSSPQSSKS — higher, 3.87
- YVKAKVSIDKDEEFAGSSPQSSKS — lower, 2.64
- YVKAKQSIDKDEEFAGSSPQSSKS — higher, 3.33
- YVKAKYSIDKDEEFAGSSPQSSKS — lower, 2.78
- YVKAKKSIDKDEAFAGSSPQSSKS — lower, 2.65
- YVKAKKSIDKDETFAGSSPQSSKS — lower, 2.7
- YVKAKKSIDKDENFAGSSPQSSKS — lower, 2.43
- YVKAKKSIDKDEHFAGSSPQSSKS — higher, 3.02
- YVKAKKSIDKDECFAGSSPQSSKS — lower, 2.05
- YVKAKKSIDKDEGFAGSSPQSSKS — lower, 2.82
- YVKAKKSIDKDEVFAGSSPQSSKS — lower, 2.31
- YVKAKKSIDKDESFAGSSPQSSKS — lower, 2.78
- YVKAKKSIDKDEYFAGSSPQSSKS — lower, 2.71
- YVKAKKSIDKDEWFAGSSPQSSKS — lower, 1.94
- YVKAKKSIDKDERFAGSSPQSSKS — lower, 2.77
- YVKAKKSIDKDEFFAGSSPQSSKS — lower, 2.09
- YVKAKKSIDKDELFAGSSPQSSKS — lower, 2.74
- YVKAKKSIDKDEPFAGSSPQSSKS — lower, 2.81
- YVKAKKSIDKDEMFAGSSPQSSKS — lower, 2.39
- YVKAKKSIDKDEKFAGSSPQSSKS — lower, 2.56
- YVKAKKSIDKDEQFAGSSPQSSKS — higher, 3.07
- YVKAKKSIDKDEDFAGSSPQSSKS — higher, 3.49
- YVKAKKSIDKDEIFAGSSPQSSKS — lower, 2.05
- YVKALKSIDKDEEFAGSSPQSSKS — lower, 2.15
- YVKAQKSIDKDEEFAGSSPQSSKS — higher, 3.83
- YVKASKSIDKDEEFAGSSPQSSKS — higher, 3.12
- YVKAHKSIDKDEEFAGSSPQSSKS — lower, 2.8
- YVKAYKSIDKDEEFAGSSPQSSKS — lower, 2.07
- YVKANKSIDKDEEFAGSSPQSSKS — higher, 3.62
- YVKAWKSIDKDEEFAGSSPQSSKS — lower, 1.6
- YVKAVKSIDKDEEFAGSSPQSSKS — higher, 3.47
- YVKACKSIDKDEEFAGSSPQSSKS — lower, 2.74
- YVKAAKSIDKDEEFAGSSPQSSKS — higher, 3
- YVKAEKSIDKDEEFAGSSPQSSKS — higher, 4.21
- YVKAIKSIDKDEEFAGSSPQSSKS — lower, 2.29
- YVKAFKSIDKDEEFAGSSPQSSKS — lower, 2.44
- YVKARKSIDKDEEFAGSSPQSSKS — lower, 2.73
- YVKADKSIDKDEEFAGSSPQSSKS — higher, 4.22
- YVKAMKSIDKDEEFAGSSPQSSKS — lower, 2.6
- YVKAGKSIDKDEEFAGSSPQSSKS — lower, 2.9
- YVKAPKSIDKDEEFAGSSPQSSKS — lower, 2.31
- YVKATKSIDKDEEFAGSSPQSSKS — higher, 3.31
